Legend:
[1] = system: ERRγ (ESRRG), mitochondrial and insulin gene expression; experiment: Quantitative RT-PCR gene expression in hiPSC-derived islet organoids/HILOs; type: cell-based, human; details: hiPSC-derived islet organoids, MCS or HILOs
Experimental: hiPSCs were cultured in matrigel-coated plates. Single cell suspensions were prepared using Accutase, washed in PBS, and collected by centrifugation (1000-1300 rpm for 5 min). Cells were re-suspended with 3D Kelco Gel Stem TeSR™ Base Medium in the presence of the ROCK inhibitor (10 μM Y-27632, StemCell) for 5 to 7 days until spheroids reached 50-100 μm diameter. The medium was then replaced with 0.015% Kelco gel containing 0.3% methylcellulose and supplemented with 100 ng/ml human Activin A (R&D Systems), 3 μM CHIR99021 (Axon or Selleckchem) in differentiation medium (S1) for 1 day, and then 100 ng/ml human Activin in differentiation medium (S1) for another 2 days (Stage 1, Definitive Endoderm). Subsequently, the medium was replaced with differentiation medium (S2) with 50 ng/ml FGF7 (R&D Systems) for 2 days, differentiation medium (S3) with 50 ng/ml FGF7, 0.25 μM SANT-1 (Sigma), 1 μM Retinoic Acid (Sigma), 100 nM LDN193189, 10 μM Alk5 inhibitor II and 200 nM of the ß-Amyloid Precursor Protein modulator TPB for 3 days, then 50 ng/ml FGF7, 0.25 μM SANT-1 (Sigma), 1 μM Retinoic Acid (Sigma), 100 nM LDN193189, 10 μM Alk5 inhibitor II and 100 nM of the ß-Amyloid Precursor Protein modulator TPB for 2 days. Subsequently the medium was replaced with differentiation medium (S4) with 0.25 μM SANT-1, 50 nM retinoic acid, 100 nM LDN193189, 10 μM Alk5 inhibitor II, 1 μM T3 for 3 days. Subsequently, the medium was replaced with differentiation medium (S5) with 100 nM LDN193189, 100 nM […] inhibitor XX (GSiXX, Millipore), 10 μM Alk5 inhibitor IL, 1 μM T3 for 7 days. Subsequently, the medium was replaced with differentiation media (S5) with 10 μM Trolox (Calbiochem), 2 μM R428 (Selleckchem), 1 mM N-acetyl cysteine, 10 μM Alk5 inhibitor II, 1 μM T3 for an additional 7 to 20 days. […]
Total RNA was extracted using TRIzol reagent (Invitrogen) and RNeasy KIT (Qiagen). […] Real time quantitative RT-PCR (qPCR) was performed using SYBR Green (Bio-Rad).

[2] = system: insulin-expressing cells of HILOs; experiment: Mitochondrial content (MitoTracker) and insulin-GFP by flow cytometry; type: cell-based, human
Description: FIGS. 8A-8H provide images, graphs, a schematic and a diagram showing results related to WNT4 mediated insulin-GFP expression and WNT4-driven metabolic maturation. FIG. 8A presents representative images of mitochondrial content, indicated by MitoTracker (red) staining, in PBS and WNT4 treated HILOs (scale bar, 100 μm). FIG. 8B presents graphs of flow cytometry quantification of insulin expression (GFP) and mitochondrial content in HILOs treated with recombinant human WNT4 (rhWNT4), WNT5A (rhWNT5A), or conditioned medium (CM) from control or WNT5A overexpressing fibroblasts (n=3). Error bars represent SEM. *p<0.05. FIG. 8C presents a gene ontology of transcriptional changes induced by WNT4 treatment (100 ng/ml WNT4 from day26 to day33) in HILOs. […] Error bars represent SEM. *p<0.05. FIG. 8E presents a Venn diagram showing overlap between WNT4-induced increases in chromatin accessibility in GFP^+ cells and increases in HILO gene expression (upper panel), and gene ontology pathways enriched in the intersection gene set. […] For FIGS. 8G and 8H, postnatal islets (day P11-14) from WT and β cell specific ERRγKO mice were cultured with or without rhWNT4 (100 ng/ml) for >5 days.

B1: WNT5a: recombinant human Wnt5a protein (protein, UniProt P41221 62-380, looked up)
Protein Wnt-5a: IIGAQPLCSQLAGLSQGQKKLCHLYQDHMQYIGEGAKTGIKECQYQFRHRRWNCSTVDNTSVFGRVMQIGSRETAFTYAVSAAGVVNAMSRACREGELSTCGCSRAARPKDLPRDWLWGGCGDNIDYGYRFAKEFVDARERERIHAKGSYESARILMNLHNNEAGRRTVYNLADVACKCHGVSGSCSLKTCWLQLADFRKVGDALKEKYDSAAAMRLNSRGKLVQVNSRFNSPTTQDLVYIDPSPDYCVRNESTGSLGTQGRLCNKTSEGMDGCELMCCGRGYDQFKTVQTERCHCKFHWCCYVKCKKCTEIVDQFVCK
Question: For B1, which “expression of ERRγ (ESRRG) and mitochondrial genes” value [1] is on record?
Answer: induced

Question: What about the “proportion of insulin expressing cells” value ([2]; GFP sorting, HILOs with and without WNT treatment) of the same molecule?
Answer: not affected

Question: And the “mitochondrial content / number” value ([2]; MitoTracker, HILOs / insulin-expressing cells)?
Answer: increased the mitochondrial content

Source: patent US12637662B2, “Cells, islets, and organoids that evade immune detection and autoimmunity, methods of production and use thereof” (SALK INSTITUTE FOR BIOLOGICAL STUDIES, priority 2018, dated 2026)
